Assay results: patent publication WO2007039645A1

Target: VSG on Trypanosoma brucei brucei AnTat 1.1 parasites (Trypanosoma brucei brucei AnTat 1.1)
Test: cell-based or functional assay
Conditions: scale: % of the parasites lysed at 10 μg/ml

VSG on Trypanosoma brucei brucei AnTat 1.1 parasites (Trypanosoma brucei brucei AnTat 1.1), sequence (P06015 30-480): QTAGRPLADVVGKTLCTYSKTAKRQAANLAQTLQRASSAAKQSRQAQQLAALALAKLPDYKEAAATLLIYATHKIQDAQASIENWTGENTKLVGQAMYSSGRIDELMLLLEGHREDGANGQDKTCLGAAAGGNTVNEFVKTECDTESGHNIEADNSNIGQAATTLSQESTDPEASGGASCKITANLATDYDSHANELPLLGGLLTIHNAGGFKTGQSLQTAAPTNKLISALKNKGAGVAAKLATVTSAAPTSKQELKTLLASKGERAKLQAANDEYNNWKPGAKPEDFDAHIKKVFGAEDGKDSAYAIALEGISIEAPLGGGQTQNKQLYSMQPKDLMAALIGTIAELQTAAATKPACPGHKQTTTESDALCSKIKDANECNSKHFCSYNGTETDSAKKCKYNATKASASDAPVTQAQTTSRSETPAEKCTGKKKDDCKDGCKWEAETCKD

“NbAn33-Tr-apoL-I (from UniProt O14791 28-342)” showed a trypanolytic activity of 100.
